Experimental data from patent publication US20160024159A1.
Several values for one entry are separate records, joined by “and”; a condition that tells them apart may be missing. Identical values can stand only once.

Tests used:
Experiment in all cases: cell-based or functional assay
[1] = target: human voltage-gated sodium channel Nav1.3 (human) (UniProt Q9NY46)
[2] = target: human voltage-gated sodium channel Nav1.4 (human) (UniProt P35499)
[3] = target: human voltage-gated sodium channel Nav1.5 (human) (UniProt Q14524)
[4] = target: human voltage-gated sodium channel Nav1.7 (human) (UniProt Q15858)
human voltage-gated sodium channel Nav1.7 (human), sequence (Q15858 whole entry): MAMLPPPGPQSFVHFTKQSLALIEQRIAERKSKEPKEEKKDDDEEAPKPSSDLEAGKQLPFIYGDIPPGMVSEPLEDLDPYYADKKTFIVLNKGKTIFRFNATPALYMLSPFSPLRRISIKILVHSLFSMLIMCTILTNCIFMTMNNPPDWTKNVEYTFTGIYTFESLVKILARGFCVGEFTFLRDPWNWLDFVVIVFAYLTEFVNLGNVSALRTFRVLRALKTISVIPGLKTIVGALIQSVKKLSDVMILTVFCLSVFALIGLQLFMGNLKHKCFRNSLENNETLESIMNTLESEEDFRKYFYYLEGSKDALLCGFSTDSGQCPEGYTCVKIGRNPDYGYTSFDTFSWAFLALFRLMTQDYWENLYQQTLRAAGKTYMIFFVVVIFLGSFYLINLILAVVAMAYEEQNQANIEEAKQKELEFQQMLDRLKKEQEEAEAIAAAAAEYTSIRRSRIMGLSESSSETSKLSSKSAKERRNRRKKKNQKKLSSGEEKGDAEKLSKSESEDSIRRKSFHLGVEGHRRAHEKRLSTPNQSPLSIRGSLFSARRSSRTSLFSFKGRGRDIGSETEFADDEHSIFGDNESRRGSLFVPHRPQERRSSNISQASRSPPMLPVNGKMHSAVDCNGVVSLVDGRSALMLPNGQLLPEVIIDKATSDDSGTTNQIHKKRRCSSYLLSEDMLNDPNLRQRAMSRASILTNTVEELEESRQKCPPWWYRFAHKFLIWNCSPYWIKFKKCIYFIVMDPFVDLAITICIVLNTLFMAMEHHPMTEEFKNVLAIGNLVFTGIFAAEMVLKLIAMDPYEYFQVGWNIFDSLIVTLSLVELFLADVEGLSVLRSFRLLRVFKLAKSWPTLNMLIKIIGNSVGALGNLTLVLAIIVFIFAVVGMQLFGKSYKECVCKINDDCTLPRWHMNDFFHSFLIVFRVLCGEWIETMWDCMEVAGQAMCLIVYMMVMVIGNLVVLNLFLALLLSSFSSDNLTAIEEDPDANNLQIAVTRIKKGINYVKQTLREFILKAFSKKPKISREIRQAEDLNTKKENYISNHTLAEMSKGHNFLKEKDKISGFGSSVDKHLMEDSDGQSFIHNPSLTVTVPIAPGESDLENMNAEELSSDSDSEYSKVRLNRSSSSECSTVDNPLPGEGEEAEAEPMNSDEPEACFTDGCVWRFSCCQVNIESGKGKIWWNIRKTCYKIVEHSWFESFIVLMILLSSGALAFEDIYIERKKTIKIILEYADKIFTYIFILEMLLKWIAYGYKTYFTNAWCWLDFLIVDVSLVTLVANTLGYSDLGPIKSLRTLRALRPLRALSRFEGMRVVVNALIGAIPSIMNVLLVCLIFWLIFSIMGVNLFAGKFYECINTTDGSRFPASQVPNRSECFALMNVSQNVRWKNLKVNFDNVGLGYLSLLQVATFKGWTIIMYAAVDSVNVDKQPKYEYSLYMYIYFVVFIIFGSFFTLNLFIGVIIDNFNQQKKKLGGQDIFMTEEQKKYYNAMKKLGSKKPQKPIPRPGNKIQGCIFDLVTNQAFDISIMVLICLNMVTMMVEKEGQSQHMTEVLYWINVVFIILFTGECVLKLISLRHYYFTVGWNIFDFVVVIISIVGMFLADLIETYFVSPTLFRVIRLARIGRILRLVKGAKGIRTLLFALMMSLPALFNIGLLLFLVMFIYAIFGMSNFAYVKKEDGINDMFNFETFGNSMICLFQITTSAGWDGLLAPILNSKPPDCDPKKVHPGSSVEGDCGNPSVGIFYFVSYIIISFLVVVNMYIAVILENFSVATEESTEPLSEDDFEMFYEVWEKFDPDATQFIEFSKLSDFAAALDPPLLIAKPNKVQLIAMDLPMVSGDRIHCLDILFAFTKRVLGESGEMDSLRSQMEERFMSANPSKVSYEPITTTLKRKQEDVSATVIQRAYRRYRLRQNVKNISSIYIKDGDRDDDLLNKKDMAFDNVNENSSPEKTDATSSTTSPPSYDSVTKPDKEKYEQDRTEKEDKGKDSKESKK

[5] = target: hNav1.7 channels in HEK293 cell (human) (UniProt Q15858)
hNav1.7 channels in HEK293 cell (human), sequence (Q15858 whole entry): as above

[6] = target: TTX-resistant Nav channels in mouse DRG neurons
[7] = target: TTX-sensitive Nav channels in mouse DRG neurons
[8] = target: human Nav1.5 voltage-gated sodium channel (human) (UniProt Q14524)
[9] = target: human Nav1.7 voltage-gated sodium channel (human) (UniProt Q15858)
human Nav1.7 voltage-gated sodium channel (human), sequence (Q15858 whole entry): as above

[10] = target: human Nav1.8 voltage-gated sodium channel (human) (UniProt Q9Y5Y9)

human voltage-gated sodium channel Nav1.4 (human), sequence (P35499 whole entry): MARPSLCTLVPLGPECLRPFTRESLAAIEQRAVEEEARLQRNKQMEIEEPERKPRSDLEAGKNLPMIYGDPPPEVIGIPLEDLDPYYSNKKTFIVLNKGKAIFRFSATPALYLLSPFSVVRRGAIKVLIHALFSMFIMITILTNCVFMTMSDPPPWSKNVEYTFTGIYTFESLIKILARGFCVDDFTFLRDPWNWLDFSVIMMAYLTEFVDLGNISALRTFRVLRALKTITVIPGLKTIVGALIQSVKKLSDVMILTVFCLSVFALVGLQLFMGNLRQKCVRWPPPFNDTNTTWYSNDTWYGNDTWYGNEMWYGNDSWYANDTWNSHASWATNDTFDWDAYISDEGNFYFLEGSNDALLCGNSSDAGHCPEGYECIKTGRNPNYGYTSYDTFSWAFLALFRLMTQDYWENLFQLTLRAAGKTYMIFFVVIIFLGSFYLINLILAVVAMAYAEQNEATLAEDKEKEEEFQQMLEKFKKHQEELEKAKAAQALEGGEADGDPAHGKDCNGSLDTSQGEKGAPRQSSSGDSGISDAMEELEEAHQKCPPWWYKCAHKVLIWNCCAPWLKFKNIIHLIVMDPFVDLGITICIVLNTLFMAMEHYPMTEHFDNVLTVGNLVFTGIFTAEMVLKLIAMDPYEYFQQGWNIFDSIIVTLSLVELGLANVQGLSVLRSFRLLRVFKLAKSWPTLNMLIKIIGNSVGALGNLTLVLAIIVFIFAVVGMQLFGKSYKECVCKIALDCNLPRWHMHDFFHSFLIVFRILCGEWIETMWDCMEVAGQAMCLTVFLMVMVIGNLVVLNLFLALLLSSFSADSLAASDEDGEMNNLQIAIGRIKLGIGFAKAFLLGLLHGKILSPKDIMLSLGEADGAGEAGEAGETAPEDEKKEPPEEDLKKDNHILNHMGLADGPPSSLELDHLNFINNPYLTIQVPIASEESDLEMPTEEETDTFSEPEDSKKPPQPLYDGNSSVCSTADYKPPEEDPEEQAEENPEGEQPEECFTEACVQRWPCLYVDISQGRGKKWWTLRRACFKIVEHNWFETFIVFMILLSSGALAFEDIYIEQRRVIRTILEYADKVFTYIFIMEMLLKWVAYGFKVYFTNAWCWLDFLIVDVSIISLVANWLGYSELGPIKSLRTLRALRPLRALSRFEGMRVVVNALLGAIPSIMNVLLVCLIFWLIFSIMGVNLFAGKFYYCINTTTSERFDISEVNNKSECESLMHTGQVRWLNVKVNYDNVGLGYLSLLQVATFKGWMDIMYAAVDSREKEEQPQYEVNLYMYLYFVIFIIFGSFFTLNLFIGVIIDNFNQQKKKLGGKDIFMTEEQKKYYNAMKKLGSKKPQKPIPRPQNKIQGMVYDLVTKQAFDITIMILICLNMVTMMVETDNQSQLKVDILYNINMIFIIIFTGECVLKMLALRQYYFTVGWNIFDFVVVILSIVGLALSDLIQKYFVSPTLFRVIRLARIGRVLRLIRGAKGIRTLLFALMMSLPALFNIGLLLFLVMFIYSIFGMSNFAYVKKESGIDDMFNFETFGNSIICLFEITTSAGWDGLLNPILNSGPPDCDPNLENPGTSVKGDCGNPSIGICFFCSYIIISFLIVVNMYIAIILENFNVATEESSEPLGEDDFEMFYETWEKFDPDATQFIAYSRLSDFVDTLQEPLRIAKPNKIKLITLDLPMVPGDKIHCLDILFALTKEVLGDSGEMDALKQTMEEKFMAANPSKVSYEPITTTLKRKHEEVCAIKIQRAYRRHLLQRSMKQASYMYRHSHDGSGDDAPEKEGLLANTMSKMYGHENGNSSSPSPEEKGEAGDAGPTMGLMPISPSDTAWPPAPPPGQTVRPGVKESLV

For JzTx-45 (peptide), the IC50 (IonWorks Quattro) [1] was 1800 nM, the IC50 (IonWorks Quattro) [2] was 2400 nM and the IC50 (IonWorks Quattro) [3] was > 5000 nM. The IC50 (IonWorks Quattro) [4] was 84 nM.

In the case of JzTx-46 (peptide), the IC50 (IonWorks Quattro) [1] is reported as 5000 nM, the IC50 (IonWorks Quattro) [2] is reported as > 5000 nM and the IC50 (IonWorks Quattro) [3] is reported as > 5000 nM. For the same substance, the IC50 (IonWorks Quattro) [4] was 330 nM.

For “[Phe6,Atz(2 kDa EtO-PEG*-[Phe6,Atz13*]GpTx-1(1-34)1)13]GpTx-1(1-34)”, the Nav1.7 WCPC IC50 [5] was 0.58 nM.

JzTx-V(1-29)-FreeAcid (peptide) was tested, and the IC50 (IonWorks Quattro) [1] was 780 nM, the IC50 (IonWorks Quattro) [2] was 610 nM and the IC50 (IonWorks Quattro) [3] was > 5000 nM. The IC50 (IonWorks Quattro) [4] was 170 nM and the PX hNav1.7 Tonic IC50 [4] was 13.1 nM.

JzTx-V(1-29) (peptide) was tested, and the WCPC Mean IC50, fully non-inactivated [6] was > 1000 nM, the WCPC Mean IC50, partially inactivated [6] was > 1000 nM and the WCPC Mean IC50, fully non-inactivated [7] was 75 nM. For the same substance, the WCPC Mean IC50, partially inactivated [7] was 18 nM, the WCPC Mean IC50, fully non-inactivated [8] was 882 nM and the WCPC Mean IC50, partially inactivated [8] was 426 nM. The WCPC Mean IC50, fully non-inactivated [9] was 0.141 nM, the WCPC Mean IC50, partially inactivated [9] was 0.162 nM and the WCPC Mean IC50, fully non-inactivated [10] was 810 nM. For the same substance, the WCPC Mean IC50, partially inactivated [10] was 530 nM, the IC50 (IonWorks Quattro) [1] was 80 nM and 100 nM and the IC50, IonWorks Quattro electrophysiology [2] was 0.2 µM. The IC50 (IonWorks Quattro) [3] was 3000 nM and 3500 nM, the IC50, IonWorks Quattro electrophysiology [3] was > 7 µM and the IC50 (IonWorks Quattro) [4] was 5 nM and 6 nM. For the same substance, the IC50, IonWorks Quattro electrophysiology [4] was 0.04 µM.
